Source: patent publication US11161912B2, “Heparanase-neutralizing monoclonal antibodies” (Technion Research & Development Foundation Limited, priority 2015, dated 2021)

Tests used:
Cal-27 tongue carcinoma = assay: Matrigel cell invasion, Cal-27 tongue carcinoma cells; format: cell-based, human; conditions: Cal-27 cells, mAb 2 μg, 6 h
Experimental: Cell invasion. Matrigel invasion assay was performed using modified Boyden chambers with polycarbonate Nucleopore membrane (Corning, Corning, N.Y.), essentially as described (17). Briefly, filters (6.5 mm in diameter, 8 μm pore-size) were coated with Matrigel (30 μl); Cells (2×10^5) in 100 μl of serum-free medium were seeded in triplicate on the upper part of each chamber, and the lower compartment was filled with 600 μl medium supplemented with 10% FCS. After incubation for 5 h at 37° C. in a 5% CO2 incubator, non-invading cells on the upper surface of the filter were wiped with a cotton swab, and migrated cells on the lower surface of the filter were fixed, stained with 0.5% crystal violet (Sigma) and counted by examination of at least seven microscopic fields.
FIG. 5A. Cell invasion. Cal-27 tongue carcinoma (left panels) and U87 glioma cells (right panels) (2×10^5) were plated onto Matrigel-coated filters in the presence of mouse IgM/IgG (upper panels), mAb 9E8 (2 μg; second left and middle panels). Invading cells adhering to the lower side of the membrane were visualized after 6 h. […] Lungs were harvested after 18 days, photographed (lower panel) and the number of metastatic lesions was counted (upper panel; p=0.001, 0.0006, 0.0001 for Con vs. Ab 1453, Con vs. mAb 9E8 and Con vs. SST0001, respectively). […]

[1] = test system: LM2-4 human breast carcinoma cells; assay: LM2-4 breast carcinoma experimental lung metastasis; format: in vivo; conditions: mAb 500 μg/mouse with the cells, lungs after 18 days
Experimental: Experimental metastasis. B16 BL6 mouse melanoma (2×10^5) or LM2-4 human breast cancer cells (2×10^6) were injected into the tail vein of C57/BL mice or SCID/Beige mice (respectively) together with the indicated compound, essentially as described (Hostettler N, et al. 2007, FASEB J 21(13):3562-3572). Lungs were harvested 18 days thereafter and metastases occurrence was determined following fixation by gross inspection and histology (Weissmann et al, 2016, Proc Natl Acad Sci USA 113:704-709).
FIG. 5A. Cell invasion. Cal-27 tongue carcinoma (left panels) and U87 glioma cells (right panels) (2×10^5) were plated onto Matrigel-coated filters in the presence of mouse IgM/IgG (upper panels), mAb 9E8 (2 μg; second left and middle panels). Invading cells adhering to the lower side of the membrane were visualized after 6 h. The number of invading cells per high power field is shown graphically at the lower panels. FIG. 5B, FIG. 5C. Tumor metastasis. FIG. 5B Mouse B16 melanoma cells (2×10^5) were inoculated into the tail vein of C57Bl/6 mice (n=7) together with rabbit IgG (300 μg; Con), Ab #1453 (250 μg), mAb 9E8 (500 μg) or SST0001 (400 μg). Lungs were harvested after 18 days, photographed (lower panel) and the number of metastatic lesions was counted (upper panel; p=0.001, 0.0006, 0.0001 for Con vs. Ab 1453, Con vs. mAb 9E8 and Con vs. SST0001, respectively). […]

B1: mAb 9E8: monoclonal IgM raised against KKDC peptide (Lys158-Asn171) of heparanase; VH SEQ ID NO: 7, VL SEQ ID NO: 8 (antibody)
VH: EVKLLESGGGLVQPGGSLKLSCAASGFDFSRYWMSWVRQAPGKGLEWIGEINPDSSTINYTPSLKDKFIISRDNAKNTLYLQMSKVRSEDTALYYCARRGYEGNYAMDYWGQGTSVTVSSESQSFPNVFPLVSCESPLSDKNLVAMGCLAR
VL: DIVMTQAAPSVPVTPGESVSISCRSSKSLLHSNGNTYLYWFLQRPGQSPQLLIYRMSNLASGVPDRFSGSGSGTAFTLRISRVEAEDVGVYYCMQHLEYPFTFGSGTKLEIKRADAAPTVSIFPPSSEQLTSGGASVVCFL
modifications: IgM constant regions
With B1 as the molecule, how does the cell invasion (Cal-27 tongue carcinoma) read?
The cell invasion was “inhibitory effect”.

And the experimental lung metastasis [1]?
Its experimental lung metastasis is “inhibitory effect”.
